In paper PMC2939065, “Nephrocystin-1 Forms a Complex with Polycystin-1 via a Polyproline Motif/SH3 Domain Interaction and Regulates the Apoptotic Response in Mammals” (PLoS ONE, 2010):

B1: peptPP2 (peptide)
peptide: Ac-GLRPALPSRLARAS-NH2
notes: stretch of the PC-1 C-tail containing PP2 (P4267ALPSR4272), aminoacids 4264-4277; also called PP2 peptide; source: synthetic peptide, bought: CASLO (Lyngby, Denmark)

Key:
[1] = molecular target: T1, NPHP1-SH3 (15N-labelled SH3 domain of nephrocystin-1 for NMR and ITC) (Homo sapiens (Human), UniProt O15259); test: NMR titration (1H-15N HSQC)
T1 chain: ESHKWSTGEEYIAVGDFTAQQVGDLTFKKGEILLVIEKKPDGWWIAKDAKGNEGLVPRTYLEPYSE

[2] = molecular target: T2, NPHP1-SH3 (15N-labelled SH3 domain of nephrocystin-1 for NMR and ITC) (human, UniProt O15259 147-212); test: NMR titration; 1H-15N HSQC of 15N NPHP1-SH3 (0.3 mM) with added peptide (0, 0.5, 1, 1.5, 2, 3, 4 equivalents for peptPP2); fast exchange; conditions: both partners purified
T2 construct: Nephrocystin-1 (NPHP1), human, SH3 domain, codons 147-212, expressed from pGEX-2T; 15N isotope label for NMR; also called 15N NPHP1-SH3
T2 sequence (looked up): T1 chain

| Binder | binding result [1] | Kd [2] |
| --- | --- | --- |
| Ac-RGSKVSPDVPPPS-NH2 (protein) [peptPP1] | no binding |  |
| B1 |  | 300 ± 20 µM |
